Experimental findings from article PMC7530383 are described below.

As usually defined, the Kd is the constant that tells how readily two partners part at equilibrium.

The target of the assay is actin (coated on the BLI biosensor). As to the kind of experiment: BLI; APS biosensor coated with actin; rTLP-1 in PBS pH 7.4 with 0.05% Tween 20 and 0.1% BSA; Octet RED, 25 °C; 300 s association, 120 s dissociation; n = 3.

For “Recombinant transgelin‐like protein 1 (rTLP‐1) from Mytilus coruscus (natural protein)”, the Kd was determined as 9.45 µM.
